Results published in the supplement of paper PMC9112550, “Optimization of the antimicrobial peptide Bac7 by deep mutational scanning” (BMC Biology, 2022).

Test system: Escherichia coli TOP10
Experiment: shrunken log2 fold change of peptide-encoding DNA abundance (4.5 h post-induction vs induction); higher = less antimicrobial activity (less host growth inhibition)
Conditions: time post-induction: 4.5 h; library: site-saturation at positions 5, 18, 19, 20
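Further: peptides expressed intracellularly from a pBAD plasmid library in pooled LB shake-flask culture, induced with 0.3% L-arabinose, DNA abundance read by NGS, three biological replicates, DESeq2 with apeglm shrinkage.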

Row | Sequence | shrunken log2 fold change
1 | RRIRWRPPRLPRPRPRPAHWPRP | 0.0695
2 | RRIRVRPPRLPRPRPRPLPVPRP | 0.0196
3 | RRIRRRPPRLPRPRPRPENTPRP | -0.0822
4 | RRIRPRPPRLPRPRPRPWRAPRP | 0.185
5 | RRIRERPPRLPRPRPRPSPIPRP | -0.122
6 | RRIRTRPPRLPRPRPRPCKVPRP | -0.233
7 | RRIRPRPPRLPRPRPRPVRIPRP | 0.0103
8 | RRIRARPPRLPRPRPRPYDMPRP | -0.0195
9 | RRIRCRPPRLPRPRPRPEKDPRP | -0.0681
10 | RRIRTRPPRLPRPRPRPMWEPRP | -0.0158
11 | RRIRERPPRLPRPRPRPADIPRP | 0.033
12 | RRIRRRPPRLPRPRPRPPDKPRP | 0.303
13 | RRIRDRPPRLPRPRPRPNYRPRP | -0.152
14 | RRIRYRPPRLPRPRPRPAHTPRP | -0.113
15 | RRIRHRPPRLPRPRPRPPIFPRP | -0.163
16 | RRIRPRPPRLPRPRPRPFMPPRP | -0.793
17 | RRIRNRPPRLPRPRPRPQVHPRP | -0.161
18 | RRIRGRPPRLPRPRPRPAYDPRP | 0.326
19 | RRIRNRPPRLPRPRPRPKDSPRP | -0.0312
20 | RRIRDRPPRLPRPRPRPLGDPRP | 0.0385
21 | RRIRGRPPRLPRPRPRPRRCPRP | 0.548
22 | RRIRSRPPRLPRPRPRPAKGPRP | 0.176
23 | RRIRSRPPRLPRPRPRPAMHPRP | -0.0199
24 | RRIRRRPPRLPRPRPRPAECPRP | -0.00699
25 | RRIRGRPPRLPRPRPRPLCFPRP | 0.705

Row | Sequence | shrunken log2 fold change
26 | RRIRFRPPRLPRPRPRPINGPRP | -0.0164
27 | RRIRTRPPRLPRPRPRPWDMPRP | -0.33
28 | RRIRDRPPRLPRPRPRPSTGPRP | -0.313
29 | RRIRDRPPRLPRPRPRPNPGPRP | -0.117
30 | RRIRLRPPRLPRPRPRPSCAPRP | -0.00959
31 | RRIRHRPPRLPRPRPRPRCVPRP | 0.548
32 | RRIRNRPPRLPRPRPRPFLTPRP | -0.505
33 | RRIRYRPPRLPRPRPRPCCAPRP | -0.437
34 | RRIRMRPPRLPRPRPRPTKCPRP | 0.331
35 | RRIRNRPPRLPRPRPRPKNVPRP | -0.267
36 | RRIRGRPPRLPRPRPRPNKGPRP | -0.0466
37 | RRIRPRPPRLPRPRPRPKYWPRP | -0.127
38 | RRIRWRPPRLPRPRPRPCCEPRP | -0.00563
39 | RRIRHRPPRLPRPRPRPENSPRP | -0.304
40 | RRIRERPPRLPRPRPRPPIVPRP | -0.302
41 | RRIRGRPPRLPRPRPRPEYLPRP | 0.468
42 | RRIRPRPPRLPRPRPRPENIPRP | -0.102
43 | RRIRQRPPRLPRPRPRPDQCPRP | -0.0972
44 | RRIRSRPPRLPRPRPRPHGEPRP | -0.0153
45 | RRIRVRPPRLPRPRPRPEWAPRP | 0.0253
46 | RRIRPRPPRLPRPRPRPEHRPRP | 0.0967
47 | RRIRERPPRLPRPRPRPAAAPRP | 0.436
48 | RRIRPRPPRLPRPRPRPKKYPRP | -0.555
49 | RRIRLRPPRLPRPRPRPNPYPRP | -0.0545
50 | RRIRERPPRLPRPRPRPTVLPRP | -0.0263

Row | Sequence | shrunken log2 fold change
51 | RRIRWRPPRLPRPRPRPPGCPRP | 0.975
52 | RRIRMRPPRLPRPRPRPLFMPRP | 0.0387
53 | RRIRPRPPRLPRPRPRPWDPPRP | -0.0945
54 | RRIRMRPPRLPRPRPRPDKNPRP | 0.373
55 | RRIRCRPPRLPRPRPRPQKKPRP | -0.0243
56 | RRIRQRPPRLPRPRPRPEFPPRP | -0.0498
57 | RRIRCRPPRLPRPRPRPCNMPRP | -0.502
58 | RRIRMRPPRLPRPRPRPHYIPRP | -0.335
59 | RRIRVRPPRLPRPRPRPIYKPRP | -0.535
60 | RRIRTRPPRLPRPRPRPDSVPRP | -0.0144
61 | RRIRYRPPRLPRPRPRPLKEPRP | 0.0179
62 | RRIRFRPPRLPRPRPRPWMLPRP | -0.277
63 | RRIRARPPRLPRPRPRPCKWPRP | 0.146
64 | RRIRQRPPRLPRPRPRPKTGPRP | -0.151
65 | RRIRVRPPRLPRPRPRPFLMPRP | -0.208
66 | RRIRHRPPRLPRPRPRPAGTPRP | -0.04
67 | RRIRKRPPRLPRPRPRPMYGPRP | 0.00748
68 | RRIRYRPPRLPRPRPRPRKPPRP | 0.0457
69 | RRIRDRPPRLPRPRPRPRYVPRP | -0.0272
70 | RRIRTRPPRLPRPRPRPRWEPRP | 0.0443
71 | RRIRERPPRLPRPRPRPIRMPRP | -0.00149
72 | RRIRGRPPRLPRPRPRPDGNPRP | 0.276
73 | RRIRFRPPRLPRPRPRPNFAPRP | -0.125
74 | RRIRQRPPRLPRPRPRPTKTPRP | 0.298
75 | RRIRLRPPRLPRPRPRPNHIPRP | -0.671

Row | Sequence | shrunken log2 fold change
76 | RRIRARPPRLPRPRPRPIKCPRP | -0.249
77 | RRIRFRPPRLPRPRPRPFPPPRP | -0.123
78 | RRIRFRPPRLPRPRPRPTDQPRP | -0.0655
79 | RRIRRRPPRLPRPRPRPMCKPRP | 0.141
80 | RRIRWRPPRLPRPRPRPGVQPRP | 0.309
81 | RRIRGRPPRLPRPRPRPYDWPRP | 0.0669
82 | RRIRIRPPRLPRPRPRPLVSPRP | -0.244
83 | RRIRFRPPRLPRPRPRPRPDPRP | 0.282
84 | RRIRGRPPRLPRPRPRPHRAPRP | 0.108
85 | RRIRERPPRLPRPRPRPYDRPRP | 0.0251
86 | RRIRRRPPRLPRPRPRPGTAPRP | 0.414
87 | RRIRMRPPRLPRPRPRPVVWPRP | 1.57
88 | RRIRLRPPRLPRPRPRPAIPPRP | -0.0222
89 | RRIRPRPPRLPRPRPRPCELPRP | -0.17
90 | RRIRWRPPRLPRPRPRPCNRPRP | -0.0268
91 | RRIRDRPPRLPRPRPRPFWEPRP | 0.272
92 | RRIRFRPPRLPRPRPRPSPDPRP | -0.0261
93 | RRIRCRPPRLPRPRPRPASCPRP | 0.209
94 | RRIRARPPRLPRPRPRPDCHPRP | 1.05
95 | RRIRNRPPRLPRPRPRPIFYPRP | 0.00954
96 | RRIRFRPPRLPRPRPRPDHQPRP | -0.147
97 | RRIRTRPPRLPRPRPRPEFSPRP | 0.00789
98 | RRIRLRPPRLPRPRPRPYQPPRP | -0.582
99 | RRIRHRPPRLPRPRPRPAGWPRP | 0.449
100 | RRIRNRPPRLPRPRPRPSEGPRP | -0.0276

Row | Sequence | shrunken log2 fold change
101 | RRIRARPPRLPRPRPRPTPWPRP | 0.563
102 | RRIRNRPPRLPRPRPRPMTWPRP | 0.0964
103 | RRIRKRPPRLPRPRPRPVAVPRP | 0.138
104 | RRIRQRPPRLPRPRPRPSMFPRP | -0.667
105 | RRIRIRPPRLPRPRPRPLLTPRP | -0.156
106 | RRIRFRPPRLPRPRPRPIECPRP | -0.00174
107 | RRIRMRPPRLPRPRPRPPMNPRP | 0.315
108 | RRIRGRPPRLPRPRPRPDMCPRP | 1.27
109 | RRIRYRPPRLPRPRPRPLFCPRP | -0.579
110 | RRIRCRPPRLPRPRPRPGSVPRP | 0.102
111 | RRIRVRPPRLPRPRPRPDTMPRP | -0.177
112 | RRIRTRPPRLPRPRPRPPGIPRP | 0.264
113 | RRIRMRPPRLPRPRPRPCWWPRP | 0.0436
114 | RRIRLRPPRLPRPRPRPGTLPRP | 0.0174
115 | RRIRCRPPRLPRPRPRPDCMPRP | 0.0384
116 | RRIRVRPPRLPRPRPRPAFFPRP | 0.084
117 | RRIRRRPPRLPRPRPRPYLVPRP | -0.0711
118 | RRIRTRPPRLPRPRPRPFHGPRP | -0.0212
119 | RRIRGRPPRLPRPRPRPCMFPRP | 0.797
120 | RRIRERPPRLPRPRPRPCLDPRP | -0.0689
121 | RRIRGRPPRLPRPRPRPRNAPRP | 0.619
122 | RRIRSRPPRLPRPRPRPYQPPRP | -0.161
123 | RRIRIRPPRLPRPRPRPHDFPRP | 0.0334
124 | RRIRYRPPRLPRPRPRPEPEPRP | 0.0661
125 | RRIRGRPPRLPRPRPRPVSCPRP | 0.885
